# In IntAct's records for PubMed 15485833:
# B1: Actin nucleation-promoting factor WASL (Homo sapiens), O00401 (parent)
# chain: MSSVQQQPPPPRRVTNVGSLLLTPQENESLFTFLGKKCVTMSSAVVQLYAADRNCMWSKKCSGVACLVKDNPQRSYFLRIFDIKDGKLLWEQELYNNFVYNSPRGYFHTFAGDTCQVALNFANEEEAKKFRKAVTDLLGRRQRKSEKRRDPPNGPNLPMATVDIKNPEITTNRFYGPQVNNISHTKEKKKGKAKKKRLTKADIGTPSNFQHIGHVGWDPNTGFDLNNLDPELKNLFDMCGISEAQLKDRETSKVIYDFIEKTGGVEAVKNELRRQAPPPPPPSRGGPPPPPPPPHNSGPPPPPARGRGAPPPPPSRAPTAAPPPPPPSRPSVAVPPPPPNRMYPPPPPALPSSAPSGPPPPPPSVLGVGPVAPPPPPPPPPPPGPPPPPGLPSDGDHQVPTTAGNKAALLDQIREGAQLKKVEQNSRPVSCSGRDALLDQIRQGIQLKSVADGQESTPPTPAPTSGIVGALMEVMQKRSKAIHSSDEDEDEDDEEDFEDDDEWED
# Variants of: B1
# Conditions: with arpc1_yeast ARC40, P38328
# arpc1_yeast ARC40, P38328, sequence (P38328 whole entry): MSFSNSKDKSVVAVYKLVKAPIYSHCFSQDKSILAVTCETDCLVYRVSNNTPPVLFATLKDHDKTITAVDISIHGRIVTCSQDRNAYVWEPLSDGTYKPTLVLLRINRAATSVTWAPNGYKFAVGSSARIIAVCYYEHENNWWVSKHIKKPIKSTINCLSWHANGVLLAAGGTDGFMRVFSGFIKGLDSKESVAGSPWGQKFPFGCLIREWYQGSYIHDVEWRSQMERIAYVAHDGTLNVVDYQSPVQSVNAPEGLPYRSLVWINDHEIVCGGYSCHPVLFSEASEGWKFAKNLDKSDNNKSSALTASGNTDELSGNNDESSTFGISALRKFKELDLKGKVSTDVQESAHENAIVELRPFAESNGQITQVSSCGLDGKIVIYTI
row,Variant,effect of a mutation on the interaction
1,MSSVQQQPPPPRRVTNVGSLLLTPQENESLFTFLGKKCVTMSSAVVQLYAADRNCMWSKKCSGVACLVKDNPQRSYFLRIFDIKDGKLLWEQELYNNFVYNSPRGYFHTFAGDTCQVALNFANEEEAKKFRKAVTDLLGRRQRKSEKRRDPPNGPNLPMATVDIKNPEITTNRFYGPQVNNISHTKEKKKGKAKKKRLTKADIGTPSNFQHIGHVGWDPNTGFDLNNLDPELKNLFDMCGISEAQLKDRETSKVIYDFIEKTGGVEAVKNELRRQAPPPPPPSRGGPPPPPPPPHNSGPPPPPARGRGAPPPPPSRAPTAAPPPPPPSRPSVAVPPPPPNRMYPPPPPALPSSAPSGPPPPPPSVLGVGPVAPPPPPPPPPPPGPPPPPGLPSDGDHQVPTTAGNKAALLDQIREGAQLKKVEQNSRPVSCSGRDALLDQIRQGIQLKSVADGQESTPPTPAPTSGIVGALMEVMQKRSKAIHSSDEDEDEDDEEDFEDDDEAED [W503A],decreasing interaction

# Variants of: B1
# Conditions: with arp3_yeast ARP3, P47117
# arp3_yeast ARP3, P47117, sequence (P47117 whole entry): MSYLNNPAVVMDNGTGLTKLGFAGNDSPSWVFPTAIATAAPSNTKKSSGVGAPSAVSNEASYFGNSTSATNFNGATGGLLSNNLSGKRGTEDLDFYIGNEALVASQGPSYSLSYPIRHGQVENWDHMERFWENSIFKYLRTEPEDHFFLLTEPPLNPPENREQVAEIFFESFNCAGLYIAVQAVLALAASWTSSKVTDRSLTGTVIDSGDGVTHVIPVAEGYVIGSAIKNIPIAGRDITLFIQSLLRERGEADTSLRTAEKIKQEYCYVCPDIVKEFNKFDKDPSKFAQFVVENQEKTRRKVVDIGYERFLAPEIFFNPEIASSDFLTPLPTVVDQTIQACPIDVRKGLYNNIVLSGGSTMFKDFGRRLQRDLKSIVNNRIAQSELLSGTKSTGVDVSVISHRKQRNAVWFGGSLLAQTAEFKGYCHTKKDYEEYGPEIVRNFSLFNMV
row,Variant,effect of a mutation on the interaction
1,MSSVQQQPPPPRRVTNVGSLLLTPQENESLFTFLGKKCVTMSSAVVQLYAADRNCMWSKKCSGVACLVKDNPQRSYFLRIFDIKDGKLLWEQELYNNFVYNSPRGYFHTFAGDTCQVALNFANEEEAKKFRKAVTDLLGRRQRKSEKRRDPPNGPNLPMATVDIKNPEITTNRFYGPQVNNISHTKEKKKGKAKKKRLTKADIGTPSNFQHIGHVGWDPNTGFDLNNLDPELKNLFDMCGISEAQLKDRETSKVIYDFIEKTGGVEAVKNELRRQAPPPPPPSRGGPPPPPPPPHNSGPPPPPARGRGAPPPPPSRAPTAAPPPPPPSRPSVAVPPPPPNRMYPPPPPALPSSAPSGPPPPPPSVLGVGPVAPPPPPPPPPPPGPPPPPGLPSDGDHQVPTTAGNKAALLDQIREGAQLKKVEQNSRPVSCSGRDALLDQIRQGIQLKSVADGQESTPPTPAPTSGIVGALMEVMQKRSKAIHSSDEDEDEDDEEDFEDDDEAED [W503A],decreasing interaction

# Variants of: B1
# Conditions: with arp2_yeast ARP2, P32381
# arp2_yeast ARP2, P32381, sequence (P32381 whole entry): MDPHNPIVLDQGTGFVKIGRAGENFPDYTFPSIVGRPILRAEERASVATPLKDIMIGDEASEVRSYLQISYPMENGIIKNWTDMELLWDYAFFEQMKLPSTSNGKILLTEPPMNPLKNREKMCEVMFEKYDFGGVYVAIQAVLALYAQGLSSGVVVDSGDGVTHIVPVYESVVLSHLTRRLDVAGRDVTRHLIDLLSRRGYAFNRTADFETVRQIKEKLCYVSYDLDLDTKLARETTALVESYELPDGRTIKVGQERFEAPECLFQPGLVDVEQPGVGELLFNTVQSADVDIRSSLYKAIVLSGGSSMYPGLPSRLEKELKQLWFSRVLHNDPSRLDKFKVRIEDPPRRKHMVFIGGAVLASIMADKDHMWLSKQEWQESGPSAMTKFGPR
row,Variant,effect of a mutation on the interaction
1,MSSVQQQPPPPRRVTNVGSLLLTPQENESLFTFLGKKCVTMSSAVVQLYAADRNCMWSKKCSGVACLVKDNPQRSYFLRIFDIKDGKLLWEQELYNNFVYNSPRGYFHTFAGDTCQVALNFANEEEAKKFRKAVTDLLGRRQRKSEKRRDPPNGPNLPMATVDIKNPEITTNRFYGPQVNNISHTKEKKKGKAKKKRLTKADIGTPSNFQHIGHVGWDPNTGFDLNNLDPELKNLFDMCGISEAQLKDRETSKVIYDFIEKTGGVEAVKNELRRQAPPPPPPSRGGPPPPPPPPHNSGPPPPPARGRGAPPPPPSRAPTAAPPPPPPSRPSVAVPPPPPNRMYPPPPPALPSSAPSGPPPPPPSVLGVGPVAPPPPPPPPPPPGPPPPPGLPSDGDHQVPTTAGNKAALLDQIREGAQLKKVEQNSRPVSCSGRDALLDQIRQGIQLKSVADGQESTPPTPAPTSGIVGALMEVMQKRSKAIHSSDEDEDEDDEEDFEDDDEAED [W503A],decreasing interaction
